Data as given in the nanobody polyreactivity screen of Harvey et al. (2022).

Test: yeast display, Sf9 membrane polyspecificity reagent, FACS + sequencing; frameworks hold sequencing errors
How it was run: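 Synthetic nanobody libraries on Saccharomyces cerevisiae BJ5465 were galactose-induced for 36–48 hours, stained 1 hour at 4 °C with 10% biotinylated, detergent-solubilized Sf9 membrane reagent and enriched on streptavidin microbeads. FACS then separated cells into low and high (top ~1%) gates by anti-HA (expression) and streptavidin (reagent binding) fluorescence. Genes were colony-PCR amplified, MiSeq 2 × 250 sequenced and CDR-length filtered. A clone's polyreactivity label is that of its gate of origin.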
For “QVQLVESGGGLVQAGGSLRLTCAASGRTFLLYAMGWYRQAPGKERELVAAITSRSGRTYYADSVKGRFTISRDNAKNTVYLQMNSLKPEDTAVYYCAAQGYAPQEYEYWGQGTQVTVSS”, the “polyreactivity (PSR sort gate)” value was “high polyreactivity”.
With “QVQLVESGGGLVQAGGSLRLTCAASGRTFNDYAMGWYRQAPGKEMELVAGITWRGGSTYYADSVKGRFTISRHNAKNTVYLQMNSLKPEDTAVYYCAVKRPWRKMGYWGQGTQVTVSS” the “polyreactivity (PSR sort gate)” value was “high polyreactivity”.
In the case of “QVQLVESGGGLVQAGGSLRLTCAASGRTFQYYAMGWYRQAPGKERELVAAISQDGGSTYYADSVKGRFTISRDNSKNSVYLQMNSLKPEDTAVYYCAARVDEYAYYALDDYWGQGTQVTVSS”, the “polyreactivity (PSR sort gate)” value is reported as “low polyreactivity”.
With “QVQLVESGGGLVQAGGSLRLTCAASGRTFSYYTIGWYRQAPGKELELVADITGSGGSTYYADSVKGRFTISRDNAKNTVYLQINSLKPEDTAVYYCSAGWPYVYYTWYWTMDYWGQGTQVTVSS” the “polyreactivity (PSR sort gate)” value was “high polyreactivity”.
In the case of “QVQLVESGGGLVQAGGSLRLTCAASGRTFTIYAMGWYRQAPGKERELVAAISSSSGSTYYADSVKGRFPISRDNAKNTVYLQKNSLKPEDTAVYYCAVKLSGQAAQRRYDYWGQGTQVTVSS”, the “polyreactivity (PSR sort gate)” value is reported as “high polyreactivity”.
For “QVQLVESGGGLVQAGGSLRLTCAASGRTFTRYAMGWYRQAPGKERELVAAISGGGGSTYYADSVKGRFTISRDNAKNTVYLQMNSLKPEDTAVYYCNAAARGSSFDYWGQGTQVTVSS”, the “polyreactivity (PSR sort gate)” value was “low polyreactivity”.
With “QVQLVESGGGLVQAGGSLRLTCAASGRTFWTNAMGWYRQAPGKVRELVAAIRNSGGRTYYADSVKGRFTISRDNAKNTVYLQMNSLKPEDTAVYYCNADFWYSYGYDYWGQGTQVTVSS” the “polyreactivity (PSR sort gate)” value was “low polyreactivity”.
For “QVQLVESGGGLVQAGGSLRLTCAASGRTFYLYAMGWYRQAPGKERELVAAITTSGGSTYYADSVKGRFTFSRDNAKNTVYLQMNSLKPEDTAVSYCNTDLSSTKFDYWGQGTQVTVSS”, the “polyreactivity (PSR sort gate)” value was “low polyreactivity”.
With “QVQLVESGGGLVQAGGSLRLTCAASGRTYRKNAMGWYRQAPGKETELVAAITGSSGTTYYADSVKARFTISRDNAKISVYFQMNSLKPEDTAVYYCATTVCDPGRRYYYWGLGTQVTVSS” the “polyreactivity (PSR sort gate)” value was “high polyreactivity”.
In the case of “QVQLVESGGGLVQAGGSLRLTCAASGSIFGDYAMGWYRQAPGKEREFVAGITRRGGRTYYADSVKGRFTISRDNAKNTVYLQMNSLKPEDTAVYYCNAVYSSSLRSKYDYWGQGTQVTVSS”, the “polyreactivity (PSR sort gate)” value is reported as “high polyreactivity”.
With “QVQLVESGGGLVQAGGSLRLTCAASGSIFGFNAMGWYRQAPGKERELGAAISSGSTYYADSVKGRFTISRDNAKNTVYLQINSLKPEDTAVYYCNARSNRGRFEYWGQGTQVTESS” the “polyreactivity (PSR sort gate)” value was “low polyreactivity”.
In the case of “QVQLVESGGGLVQAGGSLRLTCAASGSIFLYYAMGWYRQAPGKERELVAGINRVGSTNYADSVKGRFTISRDNAKNTVNLQMNSLKPEDTAVYYCNKRATRSRRRGYWGQGTQVTVSS”, the “polyreactivity (PSR sort gate)” value is reported as “low polyreactivity”.
With “QVQLVESGGGLVQAGGSLRLTCAASGSIFNRYSMGWYRQATGKERELVAVIRWRDGSTYYADSVKGRFTISRDNEKNTVYLQMNSLKPEDTAVYYCAAVYWGEEYEYWGQGTQVTVSS” the “polyreactivity (PSR sort gate)” value was “low polyreactivity”.
In the case of “QVQLVESGGGLVQAGGSLRLTCAASGSIFPYYAMGWYRQAPGKEREFVAVISRRGGSTYYADSVKGRFTISRDNAKNTVYLQMNSLKPEDTAVYYCNARGYNLLDDWGQGTQVTVSS”, the “polyreactivity (PSR sort gate)” value is reported as “high polyreactivity”.
For “QVQLVESGGGLVQAGGSLRLTCAASGSIFRVNAMGWYRQAPGKERELVAAISSGGSTHYADSVKGRFTMSRDNAKNTVYLLMNSLKPEDTAVYYCAVRGERRYIYDYWGQGTQVTVSS”, the “polyreactivity (PSR sort gate)” value was “high polyreactivity”.
With “QVQLVESGGGLVQAGGSLRLTCAASGSIFRWNAMGWYRQAPGKERELVASITSGGSTYYADSVKGRFTISRDNAKNTVYLQMISLKPEDTAVYYCAAARYPGRKFDYWGQGTQVTVSS” the “polyreactivity (PSR sort gate)” value was “high polyreactivity”.
In the case of “QVQLVESGGGLVQAGGSLRLTCAASGSIFTYYVMGWYRQAPGKERELVATITGSSGSTYYADSVKGRFTISRDNAKNTVFLQMNSLKPEDTAVYYCATYGTLVYYYYPDMEYWGQGTQVTVSS”, the “polyreactivity (PSR sort gate)” value is reported as “low polyreactivity”.
For “QVQLVESGGGLVQAGGSLRLTCAASGSIFVRNSMGWYRQAPGKERELVAAIIRSGGSTYYADSVKGRFTISRDNAKNTVYLQMNSLKPEDTAVYYCNALIRYNRYTGRDYWGQGTQVTVSS”, the “polyreactivity (PSR sort gate)” value was “high polyreactivity”.
In the case of “QVQLVESGGGLVQAGGSLRLTCAASGSIFYLNAMGWYRQAPGKERELVATISNGGSTNYADSVKGRFTISRDNAKNTVYLQMYSLKPEDTAVYYCAAASGGTVVGEGDYWGLGTQVTVSS”, the “polyreactivity (PSR sort gate)” value is reported as “low polyreactivity”.
In the case of “QVQLVESGGGLVQAGGSLRLTCAASGSIFYLYAMGWYRQAPGKETELVAAISRTGSTYADSVKGRFTISRDNAKKTVYLQMNSLKPEDTAVYYCAAEYRYYWYGTMNYWGQGTQVTVSS”, the “polyreactivity (PSR sort gate)” value is reported as “low polyreactivity”.
With “QVQLVESGGGLVQAGGSLRLTCAASGSIFYPYAMGWYRQAPGKERELVAAISWSGGSTYYADSVKGRFTISRDNAKNTVYLQMKSLKPEDTAVYYCNAVGHWFYSSGRYYGDDYWGQGTQVTVSS” the “polyreactivity (PSR sort gate)” value was “high polyreactivity”.
For “QVQLVESGGGLVQAGGSLRLTCAASGSIIWAYAKGWYRQAPGKERELVAAISSGGSTYYADSVKGRFTISRDNAKNIVYLQMNCLKPEDTPVFYCAASWSRRYYYWGQGTQVTVSS”, the “polyreactivity (PSR sort gate)” value was “high polyreactivity”.
In the case of “QVQLVESGGGLVQAGGSLRLTCAASGSISFGYAMGWYRQAPGKERELVAAITWSTARTYYADSVKGRFTISRDNAKNTVYLQMNSLKPEDTAVYYCAKGGYWGQGTQVTVSS”, the “polyreactivity (PSR sort gate)” value is reported as “high polyreactivity”.
With “QVQLVESGGGLVQAGGSLRLTCAASGSIVWYAMGSYRQATGKEREVVAAISRRGGSTYYADSVKGRFTISRDNAKNTVYLQSKSLKSEDTAVYYCADRPAREEYDYWGQGTQVTVSS” the “polyreactivity (PSR sort gate)” value was “high polyreactivity”.
In the case of “QVQLVESGGGLVQAGGSLRLTCAASGSTFADYAMGWYRQAPGKERELVAAITGDGGNTYYADSVKGRFTISRDNAKNTVYLQMNSLKPEDTAVYYCAAEHETGAYYYWGLGTQVTVSS”, the “polyreactivity (PSR sort gate)” value is reported as “high polyreactivity”.
In the case of “QVQLVESGGGLVQAGGSLRLTCAASGSTFDTYAMGWYRQAPGKERELVAAISGSGVRTYYADSVKGRFTISRDNAKNTVYLQMNSLKPEDTAVYYCAARYPRRCGEYGYWGQGTQVTVSS”, the “polyreactivity (PSR sort gate)” value is reported as “high polyreactivity”.
For “QVQLVESGGGLVQAGGSLRLTCAASGSTFKQNVMGWYRQAPGKERELVAAITSGGSTNYADSVKGRFTISRDNAKNTVYLQMNSLKPEDTAVYYCNKDTSGIYLDDYWGQGTQVTVSS”, the “polyreactivity (PSR sort gate)” value was “low polyreactivity”.
In the case of “QVQLVESGGGLVQAGGSLRLTCAASGSTFPRYAMGWYRQAPGKEREFVAVIWSGGSTYYADSVKGRFTISRDNAKNTVYLQMNSLKPEDSAVYYCAAEYHTLSKYSGYATHDYWGQGTQVTVSS”, the “polyreactivity (PSR sort gate)” value is reported as “low polyreactivity”.
With “QVQLVESGGGLVQAGGSLRLTCAASGSTFSKNAMGWYRQATGNERELVASISSSVGSTYYSDSVKGRFTISRDNAKNTVYLQMNSLKPEDTAVYYCATRRGRGYYYWGQGTQVTVSS” the “polyreactivity (PSR sort gate)” value was “high polyreactivity”.
For “QVQLVESGGGLVQAGGSLRLTCAASGSTFWAYAMGWYRQAPGKERELVAAITTGGGRTFYADSVKGRFTISRDNAKNTVYLQMNSLIPEDTAVYYCAAVSQSYRMYYWGQGTQVTVSS”, the “polyreactivity (PSR sort gate)” value was “low polyreactivity”.
With “QVQLVESGGGLVQAGGSLRLTCAASGSTFYIYAMGWDRQAPGKEAEFVAAIDFSGSSTYADSVKGRFTISRDNAKNTVYLQMNSLKPEDTAVYYCAAYQIYQYDGPYDYWGEGTQVTVSS” the “polyreactivity (PSR sort gate)” value was “low polyreactivity”.
In the case of “QVQLVESGGGLVQAGGSLRLTCAASGSTFYPYAMGWYRQAPGKERELVAAISSGGSTYYADSVKGRFTISRDNAKNSVYLQMNSLKPEDTAVYYCAADFYYAYYWGQGTQVTVSS”, the “polyreactivity (PSR sort gate)” value is reported as “low polyreactivity”.
With “QVQLVESGGGLVQAGGSLRLTCAASGSTLYSYAMGWYRPAPGKERELVAAISKSGGRTYYADSVKGRFTISRDNAKISVYLEMNSLKPEDTAVYYCAGREKYTPALEVEYWGQGTQVTVSS” the “polyreactivity (PSR sort gate)” value was “high polyreactivity”.
For “QVQLVESGGGLVQAGGSLRLTCAASGSTYLNYAMGWYRQAPGKERELVAAITSGGRTYYADSVKGRFTISRDNAKNTVYLQMNSLKPEDTAVYYCAKVSYRYGLYDYWGQGTQVTVSS”, the “polyreactivity (PSR sort gate)” value was “high polyreactivity”.
For “QVQLVESGGGLVQAGGSLRLTCAASGYAMGWYRQAPGKERELVAAISWSGDITYADSVKGRFTISRDNAKNTVYLQMNRLKPEDTAVYSCNADRYTGRDGEQSLDYWGQGTQVTVSS”, the “polyreactivity (PSR sort gate)” value was “low polyreactivity”.
With “QVQLVESGGGLVQAGGSLRLTCAASGYTFNYYAKGWYRQAPGKERELVAAIDWSDGTTYYADSVKGRFTISPDYAKNTVYLQMNSLKPEDTAVYYCAASLSQSEYDYWGQGTLVTVSS” the “polyreactivity (PSR sort gate)” value was “low polyreactivity”.
For “QVQLVESGGGLVQAGGSLRLTCAASRIIFRKYAMGWYRQAPGKERELVAAISSSAGSTYYADSVKGRFTISRDNAKNTVYLQMNSLKPEDTAVYYCAADRHYTRYDYWGQGTQVTVSS”, the “polyreactivity (PSR sort gate)” value was “high polyreactivity”.
With “QVQLVESGGGLVQAGGSLRLTCAATGRTFYNGMGWYRQAPGKERELVAAISRGGSTYYADSVKGRFTISRDNAKNTFYLQMTSLKPEDTAVYYCAIDQSRYVYVTLRGGYWGLGTQVTVSS” the “polyreactivity (PSR sort gate)” value was “low polyreactivity”.
For “QVQLVESGGGLVQAGGSLRLTCADSGIIYTYNAMRWYRQAPGKEMEFVATITWSGGSTYYADSVKGRFTISRDNAMNTVYFQMNSLKPEDTAVYYCAVDYSRHGYWSPVYEFNYWGQGTQVTVSS”, the “polyreactivity (PSR sort gate)” value was “low polyreactivity”.
In the case of “QVQLVESGGGLVQAGGSLRLTCAPSVRIFTIYDMGRYRQAPGKERELVATITYSSGSTSYADSVKGRFTISRDNAKNTVYLLMNSLKPEDTAVYYCAKKYYSGYGYWGQGTQVTVSS”, the “polyreactivity (PSR sort gate)” value is reported as “low polyreactivity”.
With “QVQLVESGGGLVQAGGSLRLTCDASGYIFSKYAMGWYRQAPGKERELVAAISGSGGSTSYADSVKGRFTISRDNAKNTVYLQMYCLKPEDTAVYYCIARSRLQRGRMDYWGQGTQVTVSS” the “polyreactivity (PSR sort gate)” value was “high polyreactivity”.
With “QVQLVESGGGLVQAGGSLRLTSAASGYIFEEYDMGCYRQAPGKERELVAAIRFSSASTTYADSVKGRFTISRDNAKNTVYLQMNSLKPEDTAVYYCAVKAGDVYSDYDYWGQGTQVTVSS” the “polyreactivity (PSR sort gate)” value was “low polyreactivity”.
For “QVQLVESGGGLVQAGGSLRSSCAATGRTFYYNGMGWYRQAPGKERELVATITNGGSTNYADSVKGRFTISRDNAKNTVYLQMNSLKPEDTAVSYCAKTLASDCYDYWGQGTQVTVSS”, the “polyreactivity (PSR sort gate)” value was “low polyreactivity”.
